* marks the point of attachment. Palmitoyl = CCCCCCCCCCCCCCCC(=O)*
Columns and labels:
PTHR1 [1] = target: T1, PTHR1 (Rattus norvegicus, UniProt P25961); experiment: cAMP screening assay using DiscoveRX XS+ kit (PTH1-34 dose-response in UMR-106 cells); details: compound 10 μM, PTH1-34 stimulated maximal response, 1−(Emax compound/Emax vehicle)
T1 sequence (P25961 27-591): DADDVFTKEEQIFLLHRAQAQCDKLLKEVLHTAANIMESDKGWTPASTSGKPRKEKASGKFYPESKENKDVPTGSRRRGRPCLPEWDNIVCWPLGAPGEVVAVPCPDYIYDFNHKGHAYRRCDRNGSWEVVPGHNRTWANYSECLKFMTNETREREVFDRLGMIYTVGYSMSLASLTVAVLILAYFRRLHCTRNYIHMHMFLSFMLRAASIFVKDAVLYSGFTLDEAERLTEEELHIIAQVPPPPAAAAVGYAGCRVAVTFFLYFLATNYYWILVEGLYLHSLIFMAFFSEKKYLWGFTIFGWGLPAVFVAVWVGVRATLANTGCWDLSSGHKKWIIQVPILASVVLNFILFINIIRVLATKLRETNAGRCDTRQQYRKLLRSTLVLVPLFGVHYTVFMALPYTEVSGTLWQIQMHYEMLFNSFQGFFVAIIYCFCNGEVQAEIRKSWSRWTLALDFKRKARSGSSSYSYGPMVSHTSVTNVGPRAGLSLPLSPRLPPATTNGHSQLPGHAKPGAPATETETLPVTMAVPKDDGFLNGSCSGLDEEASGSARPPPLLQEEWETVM
Method: (§1) cAMP Screening Assay Using DiscoveRX XS+ Kit
(§2) UMR-106 cells were seeded in 96-well white plates at 10K cells/well in growth media. Twenty four hours after seeding, cell media was removed by gentle dumping and replaced with 30 μL of compounds diluted to 10 μM final concentration in assay buffer (Hank's balanced Salt Solution, 20 mM HEPES, pH 7.4, 0.1 μM IBMX). After 30 minute incubation at room temperature, 10 μL human PTH1-34 serial diluted in assay buffer was added. Cells were incubated at 37° C. for 15 minutes before 10 μL of water soluble analog of forskolin, NKH477 was added to final concentration of 10 μM followed by 60 minute incubation at room temperature. DiscoveRX cAMP XS+ kit reagents were then added following manufacture protocol. Briefly, 10 μL of antibody was added to each well followed by 40 μL of ED/Lysis buffer mix (1/5/19 for Galacon-star/Emerald/Lysis buffer and then 1:1 with ED). After 1 hour incubation, 40 μL of EA reagent was added followed by at least 1 hour incubation before the plates were read on TopCount reader. Data was analyzed using GraphPad Prism. PTH1-34 dose-response curves were fitted using non-linear curve fit (Y=Bottom+(Top−Bottom)/(1+10̂((Log EC50−X)*HillSlope))). PTH1-34 EC50 values calculated in the presence of compounds were compared to that in the presence of vehicle control. The ratio of the EC50 values were calculated and presented as fold shift (EC50 compound/EC50 vehicle). The effect of compounds on PTH1-34 stimulated maximal response was also assessed and was presented percent inhibition (1−(Emax compound/Emax vehicle)).

PTHR1 [2] = target: T1, PTHR1
Method: as §1, §2

Substance | Inhibition of Maximal Response (PTHR1 [1]) [%] | Fold Shift of EC50 (PTHR1 [2])
KLRETNAGRSDTRQQY [Compound 53] | 6.40 | 2.1
SRWTLALDFKRKAR [Compound 104] | 26.80 | 1.2
TNAGRSDTRQQYRKLLKS [Compound 64] | −0.10 | 7
TNAGRSDTRQQYRKLLF [Compound 83] | −5.80 | 7
SGRRLHSTRNYIHMH [Compound 17] | 39.40 | 2.8
RETNAGRSDTRQQYRK [Compound 60] | 4.30 | 3.3
RRLHSTRNYIHMH [Compound 1] | 5.50 | 1.3
NIVRVLATKLRETNAGR [Compound 54] | 17.50 | 0.7
HSLIFMAFFSEKKYL [Compound 33] | 27.50 | 1.1
Pal-NGEVQAEIKKSWSRWTLALD-amide (Palmitoyl-NGEVQAEIKKSWSRWTLALD-NH2; SMILES CCCCCCCCCCCCCCCC(=O)N[C@@H](CC(N)=O)C(=O)NCC(=O)N[C@@H](CCC(=O)O)C(=O)N[C@H](C(=O)N[C@@H](CCC(N)=O)C(=O)N[C@@H](C)C(=O)N[C@@H](CCC(=O)O)C(=O)N[C@H](C(=O)N[C@@H](CCCCN)C(=O)N[C@@H](CCCCN)C(=O)N[C@@H](CO)C(=O)N[C@@H](Cc1c[nH]c2ccccc12)C(=O)N[C@@H](CO)C(=O)N[C@@H](CCCNC(=N)N)C(=O)N[C@@H](Cc1c[nH]c2ccccc12)C(=O)N[C@H](C(=O)N[C@@H](CC(C)C)C(=O)N[C@@H](C)C(=O)N[C@@H](CC(C)C)C(=O)N[C@@H](CC(=O)O)C(N)=O)[C@@H](C)O)[C@@H](C)CC)C(C)C) [Compound 105] | 34.00 | 1.1
LHSLIFMAFFSEKKYLWGFT [Compound 37] | 35.60 | 1.1
Pal-GSEKKYLWGFTVF-amide (Palmitoyl-GSEKKYLWGFTVF-NH2; SMILES CCCCCCCCCCCCCCCC(=O)NCC(=O)N[C@@H](CO)C(=O)N[C@@H](CCC(=O)O)C(=O)N[C@@H](CCCCN)C(=O)N[C@@H](CCCCN)C(=O)N[C@@H](Cc1ccc(O)cc1)C(=O)N[C@@H](CC(C)C)C(=O)N[C@@H](Cc1c[nH]c2ccccc12)C(=O)NCC(=O)N[C@@H](Cc1ccccc1)C(=O)N[C@H](C(=O)N[C@H](C(=O)N[C@@H](Cc1ccccc1)C(N)=O)C(C)C)[C@@H](C)O) [Compound 41] | 17.70 | 0.9
RQQYRKLLKSTL [Compound 57] | −38.80 | 15.6

Reference: patent US20110294738A1, “PTHR1 RECEPTOR COMPOUNDS” (priority 2008, published 2011)
